The record followed here is patent US20210268096A1 (TRELLIS BIOSCIENCE, published 2021).

Assay [1] has as its target human chemokine receptor CX3CR1 (human) (UniProt P49238). Put plainly: cell-based or functional assay.
The target in assay [2] is T1, recombinant RSV G[161-197] (respiratory syncytial virus (RSV), UniProt P03423 161-197).
T1 chain: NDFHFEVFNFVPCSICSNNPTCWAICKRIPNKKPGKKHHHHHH
Briefly: cell-based or functional assay.

Sequence of human chemokine receptor CX3CR1 (human) (P49238 whole entry): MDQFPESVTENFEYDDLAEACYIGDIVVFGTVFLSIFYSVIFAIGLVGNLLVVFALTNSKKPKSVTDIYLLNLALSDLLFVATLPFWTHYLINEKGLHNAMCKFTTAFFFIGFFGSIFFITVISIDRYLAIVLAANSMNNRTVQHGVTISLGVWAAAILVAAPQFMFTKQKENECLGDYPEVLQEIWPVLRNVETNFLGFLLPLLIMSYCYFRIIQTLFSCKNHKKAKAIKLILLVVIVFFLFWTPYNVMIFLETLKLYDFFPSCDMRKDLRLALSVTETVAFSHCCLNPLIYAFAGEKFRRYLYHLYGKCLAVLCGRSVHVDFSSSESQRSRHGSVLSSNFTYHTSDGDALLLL

“RSV G ectodomain (G[ecto]) (from UniProt P03423 64-298)” yielded a chemotactic index (fold-increase in THP-1 cell migration vs serum-free media) (fold (chemotactic index)) in assay [1] of 3.9.
Still for that read-out and setting: the figure for “recombinant RSV G[161-197] (from UniProt P03423 161-197) (peptide)” is 4.2.

B1: mAb 2D10 (antibody, V domains shown)
VH: QVQLVQSGPEVKKPGASVRLSCKASGYVFTNYGVSWVRQAPGQGLEWMGWSSPYNGNTYYAQKLKARVTMTTDTSTNTAYMELRSLRSDDTAVYYCGRDMLGVVQAVAGPFDSWGQGTLVTVSS
VL: DTPMTQSPSSVSASVGDRVTISCRASQGISNSLAWYQQKLGKAPQLLIYAASSLQSGVPSRFSGSGSGTDFTLTISSLQPEDFATYYCQQTNTFPFTFGPGTKVEVRR
In the case of B1, the “chemotactic index of 5 nM RSV G[161-197] pre-incubated with 25 nM mAb” value in assay [2] was 1 fold (chemotactic index).

B2: mAb 3D3 (antibody, V domains shown)
VH: EEQLVESGGGLVQPGRSLRLSCVGSGLRFEEHAMHWVRQAPGRGLEWVSGISWNSGSVGYADSVKGRFTTSRDNAKDILFLEMNTLRSEDTALYFCAIMVATTKNDFHYYKDVWGKGTTVTVSS
VL: QIVLTQSPATLSLSPGERATLSCKASQSVSNHLAWYQQKPGQAPRLLIYETSNRATGIPPRFSGSGSGTDFTLTISSLEPEDFAVYYCQQRNNWYTFGQGTKLEIK
As to B2, in assay [2], the “chemotactic index of 5 nM RSV G[161-197] pre-incubated with 25 nM mAb” value is 1.5 fold (chemotactic index).
